In US20100291097A1:

Legend:
[1] = target: Monomer-enriched preparation of the Aβ1-42 peptide (W. M. Keck Facility peptide); assay: ELISA, coated 2.2 µM; Ab 1:2 (start 0.5 µg/ml); mean of 3
[2] = target: Oligomer-enriched preparation of the Aβ1-42 peptide (W. M. Keck Facility peptide); assay: as above
[3] = target: Monomer-enriched preparation of the Aβ1-42 peptide (W. M. Keck Facility peptide); assay: ELISA, coated 2.2 µM; Ab 1:4 (start 0.5 µg/ml); mean of 3
[4] = target: Oligomer-enriched preparation of the Aβ1-42 peptide (W. M. Keck Facility peptide); assay: ELISA, coated 2.2 µM; Ab 1:8 (start 0.5 µg/ml); mean of 3
[5] = target: Monomer-enriched preparation of the Aβ1-42 peptide (W. M. Keck Facility peptide); assay: ELISA, coated 2.2 µM; Ab 1:16 (start 0.5 µg/ml); mean of 3
[6] = target: Monomer-enriched preparation of the Aβ1-42 peptide (W. M. Keck Facility peptide); assay: ELISA, coated 2.2 µM; Ab 1:32 (start 0.5 µg/ml); mean of 3
[7] = target: Oligomer-enriched preparation of the Aβ1-42 peptide (W. M. Keck Facility peptide); assay: as above
[8] = target: Oligomer-enriched preparation of the Aβ1-42 peptide (W. M. Keck Facility peptide); assay: ELISA, coated 2.2 µM; Ab 1:64 (start 0.5 µg/ml); mean of 3
[9] = target: Oligomer-enriched preparation of the Aβ1-42 peptide (W. M. Keck Facility peptide); assay: ELISA, coated 2.2 µM; Ab 1:128 (start 0.5 µg/ml); mean of 3

Monomer-enriched preparation of the Aβ1-42 peptide (W. M. Keck Facility peptide), sequence (peptide, as listed by the source): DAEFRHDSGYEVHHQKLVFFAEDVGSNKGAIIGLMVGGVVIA
Oligomer-enriched preparation of the Aβ1-42 peptide (W. M. Keck Facility peptide), sequence (peptide, as listed by the source): as above

Substance: 6E10 control antibody
- O.D. [1]: 3.59 O.D.
- O.D. [2]: 3.59 O.D.
- O.D. [3]: 3.27 O.D.
- O.D. [4]: 2.98 O.D.
- O.D. [5]: 1.98 O.D.
- O.D. [6]: 1.36 O.D.
- O.D. [7]: 1.32 O.D.
- O.D. [8]: 0.92 O.D.
- O.D. [9]: 0.63 O.D.
